Patent US20250051460A1

Target: human VEGF-A (human) (UniProt P15692)
Assay: cell-based or functional assay

EYLEA (aflibercept) (Fc fusion), sequence (chain): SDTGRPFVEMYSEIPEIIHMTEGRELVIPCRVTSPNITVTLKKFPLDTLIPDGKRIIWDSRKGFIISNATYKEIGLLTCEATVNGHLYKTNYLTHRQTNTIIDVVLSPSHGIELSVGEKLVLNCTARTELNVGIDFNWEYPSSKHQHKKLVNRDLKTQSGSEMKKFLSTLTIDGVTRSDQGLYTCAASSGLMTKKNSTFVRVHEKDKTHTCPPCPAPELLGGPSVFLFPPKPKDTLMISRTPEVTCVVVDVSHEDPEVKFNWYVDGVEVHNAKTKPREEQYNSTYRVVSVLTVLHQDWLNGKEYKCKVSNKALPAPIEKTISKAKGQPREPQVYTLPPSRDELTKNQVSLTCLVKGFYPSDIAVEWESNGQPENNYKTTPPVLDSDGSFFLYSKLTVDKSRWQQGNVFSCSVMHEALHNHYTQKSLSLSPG
human VEGF-A (human), sequence (P15692 other isoform, or with tags, fused parts or gaps limits assumed): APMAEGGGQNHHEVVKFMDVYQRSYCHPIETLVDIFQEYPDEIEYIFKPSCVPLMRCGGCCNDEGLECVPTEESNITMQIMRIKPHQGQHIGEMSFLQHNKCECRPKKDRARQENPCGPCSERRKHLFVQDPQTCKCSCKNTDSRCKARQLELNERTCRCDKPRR

EYLEA (aflibercept) (Fc fusion)
ERK1/2 phosphorylation: Bottom plateau (AlphaLISA counts) (AlphaLISA counts): 21700 | ERK1/2 phosphorylation: Top plateau (AlphaLISA counts) (AlphaLISA counts): 109000 | HRMEC proliferation, delta area under the curve vs. basal: Top plateau (arbitrary units) (arbitrary units): 129 | HRMEC proliferation: Bottom plateau (arbitrary units) (arbitrary units): 13.3 | HRMEC proliferation: IC50 (pM): 171 pM | HRMEC proliferation: LogIC50: -9.77 | IC50 (p38 MAPK phosphorylation): 0.74 nM | Src phosphorylation (Y419): Bottom plateau (AlphaLISA counts) (AlphaLISA counts): 2210 | Src phosphorylation (Y419): IC50: 0.933 nM | Src phosphorylation (Y419): LogIC50: -9.37 | Src phosphorylation (Y419): Top plateau (AlphaLISA counts) (AlphaLISA counts): 3420 | inhibition of VEGF-induced HRMEC proliferation: 16 nM | p38-MAPK phosphorylation (T180/Y182): Bottom plateau (AlphaLISA counts) (AlphaLISA counts): 8890 | p38-MAPK phosphorylation (T180/Y182): IC50: 0.748 nM | p38-MAPK phosphorylation (T180/Y182): LogIC50: -9.13 | p38-MAPK phosphorylation (T180/Y182): Top plateau (AlphaLISA counts) (AlphaLISA counts): 23100
